Earlier results in PMC5689459.

Target: delta-opioid receptor (Homo sapiens) (UniProt P41143)
Experiment: radioligand

Morphiceptin, sequence (P02666 whole entry, looked up): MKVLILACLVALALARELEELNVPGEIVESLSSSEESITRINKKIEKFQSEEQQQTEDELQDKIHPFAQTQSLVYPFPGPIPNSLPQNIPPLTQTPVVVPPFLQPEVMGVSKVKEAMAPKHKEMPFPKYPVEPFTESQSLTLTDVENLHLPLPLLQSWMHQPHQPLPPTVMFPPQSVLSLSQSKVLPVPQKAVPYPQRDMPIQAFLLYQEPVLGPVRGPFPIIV

Ki: > 10 µM
Substance: Morphiceptin (from UniProt P02666)
